Measurements as given in paper PMC3340446.

Columns and labels:
[1] = target: Trypanosoma brucei AlkB homolog (TbABH-His6) (Trypanosoma brucei brucei (strain 427 genomic DNA)); experiment: native gel or EMSA
[2] = target: Trypanosoma brucei AlkB homolog (TbABH-His6) (Trypanosoma brucei brucei (strain 427 genomic DNA)); experiment: SEC

Substance: Trypanosoma brucei AlkB homolog (TbABH-His6) (enzyme)
- stoichiometry N [1]: 4
- stoichiometry N [2]: 2
